This note sets out measurements from US20250155441A1.

Where a chain is given by its changes, count along the chain named.

For experiment [1], the target named is α-fetoprotein (AFP-L1), the non-fucosylated variant of AFP that should not react with Lens culinaris agglutinin A (human) (UniProt P02771). In words: Elecsys ECL immunoassay, biotinylated protein 7 nM without pretreatment, antibody 1 µg/mL, ruthenylated anti-rabbit Fc, streptavidin beads (PBS blank 570).
Experiment [2] has the same target. In words: Elecsys ECL immunoassay, biotinylated protein 7 nM without pretreatment, antibody 1 µg/mL, ruthenylated anti-rabbit Fc, streptavidin beads (PBS blank 580).

Sequence of α-fetoprotein (AFP-L1), the non-fucosylated variant of AFP that should not react with Lens culinaris agglutinin A (human) (P02771 19-609 limits assumed, change not shown): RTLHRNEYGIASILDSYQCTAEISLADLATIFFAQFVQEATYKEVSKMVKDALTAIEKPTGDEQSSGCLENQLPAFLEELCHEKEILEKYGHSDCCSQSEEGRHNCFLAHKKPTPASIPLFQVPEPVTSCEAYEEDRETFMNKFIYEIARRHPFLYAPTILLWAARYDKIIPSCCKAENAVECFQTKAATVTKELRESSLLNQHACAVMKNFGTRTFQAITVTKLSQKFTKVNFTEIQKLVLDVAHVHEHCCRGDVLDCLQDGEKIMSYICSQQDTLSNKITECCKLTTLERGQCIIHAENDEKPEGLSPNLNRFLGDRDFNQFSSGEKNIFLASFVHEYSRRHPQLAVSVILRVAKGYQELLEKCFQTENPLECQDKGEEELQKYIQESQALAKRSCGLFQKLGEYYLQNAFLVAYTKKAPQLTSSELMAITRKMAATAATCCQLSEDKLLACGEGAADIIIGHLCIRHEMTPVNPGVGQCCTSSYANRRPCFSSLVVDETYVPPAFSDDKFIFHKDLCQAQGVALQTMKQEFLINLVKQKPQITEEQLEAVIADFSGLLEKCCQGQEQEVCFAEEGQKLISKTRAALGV

B1: mAb<AFP-L3>rRb-3C5-IgG (antibody, V domains shown)
VH: QSVEESGGRLVAPGTPLTLTCTVSGIDLSTYGMGWVRQAPGKGLEYIGIIDSGSTYYANWAKGRFTISKTSTTVDLKMTSLTTEDTATYFCARDRDPSSSGYYFKMWGPGTLVTVSL
VL: ALVMTQTPSSVSAAVGGTVTINCQASQSIGSYLAWYQQKPGQPPRLLIYGASNLESGVPSRFKGSGSGTEFTLTISDLECDDAATYYCQTAFYIFSSDNAFGGGTEVVVK
B1: in experiment [1], the Counts came out at 724 counts.

B2: mAb<AFP-L3>rRb-19B12-IgG (antibody, V domains shown)
VH: QSVEESGGRLVAPGTPLTLTCTVSGIDLSTYGMGWVRQAPGKGLEWIGIIGDNGSTYYANWAKGRFTISKTSTTVDLKMTSLTTEDTATYFCARDRDPSSSGYYFKMWGPGTLVTVSL
VL: B1 VL with G30S, R45K, Y49F
Take B2: the Counts in experiment [2] stood at 771 counts.
